Tested on: T1, C[C@H](NC(=O)CCC(=O)O)C(=O)N[C@@H](CCCCN)C(=O)N1CCC[C@H]1C(=O)N[C@@H](Cc1ccccc1)C(=O)Nc1ccc([N+](=O)[O-])cc1
T1 construct: GST-His6 (PreScission site) (N, cleaved yes); made in house; host or cells: E. coli BL21 (DE3) T1r
Assay: Protease-coupled isomerase assay (PPIase assay) with the catalytic domain
Type: biochemical, human
Conditions: other: as quoted in running text; pH 6.8; 10.0 °C
Description: To determine the catalytic efficiency and substrate specificity of Par14 and Par17, we performed a protease‐coupled assay. In this assay, the trans form of a para‐nitroaniline (pNA) tagged model substrate is cleaved by chymotrypsin, and the resulting change in absorption at 390 nm due to free pNA is measured. When the model substrate is added to the protease‐containing buffer, all trans‐Xaa‐Pro isomers are immediately cleaved by chymotrypsin. Therefore, the extent of the first signal burst observed in the absorption spectrum correlates with the amount of trans isomers of the model substrate formed during the experimental dead time. […] The newly formed trans‐Xaa substrates are immediately cleaved, and isomerization can thus be monitored over time (Figure 2). Eighteen different substrate peptides with varying amino acids at the Xaa position (Suc‐Ala‐Xaa‐Pro‐Phe‐pNa) were measured to determine the isomerase activity and substrate selectivity of Par14 (Par17Δ1–25), Par17, and the catalytic domain (Par17Δ1–60) (Table S1). […]
We determined the isomerase activity using the PPIase assay described by. […] A baseline was recorded for 5 min (Cary 100Bio UV/Vis spectrophotometer, Varian/Agilent, Santa Clara, US, λ: 390 nm, bandwidth: 1.0 nm, average time between measurements: 0.5 s, temperature: 10°C). […] The solution was mixed by inverting the cuvette three times and the reaction was recorded for 15 min. […]

PPIase domain (Par17Δ1-60) (Homo sapiens), sequence (chain, as listed by the source mutant): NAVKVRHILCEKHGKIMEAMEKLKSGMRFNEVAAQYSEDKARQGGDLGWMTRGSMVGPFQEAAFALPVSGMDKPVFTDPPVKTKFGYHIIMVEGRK

Question: How did the kcat/Km turn out when “PPIase domain (Par17Δ1-60) (Homo sapiens)” was run?
Answer: 3700 M⁻¹ s⁻¹

From article PMC12314576, “The Actin‐Binding Prolyl‐Isomerase Par17 Sustains Its Substrate Selectivity by Interdomain Allostery” (Proteins, 2025)
